The text below walks through data of paper PMC3176505 (Biochemistry, 2009).

One data set relates to CCCCC1CCCC(=O)O1. Nature of the data set: purified protein. As to conditions: pH 8.3.
A further data set relates to CCCCCC1CCCC(=O)O1. Kind of data set: purified protein. As to conditions: pH 8.3.

Broadly, the Km is the substrate concentration at which the rate is half of its maximum. In general, kcat/Km refers to the turnover number divided by the Michaelis constant. Consider “Dr0930 (Deinococcus radiodurans R1 = ATCC 13939 = DSM 20539)”, for which, in the data set with CCCCC1CCCC(=O)O1, the Km was found to be 100 ± 20 µM and the kcat/Km is 420000 ± 70000 M⁻¹ s⁻¹. Also, in the data set with CCCCCC1CCCC(=O)O1, the Km was found to be 80 ± 10 µM and the kcat/Km stood at 200000 ± 20000 M⁻¹ s⁻¹.
“Dr0930 (Deinococcus radiodurans R1 = ATCC 13939 = DSM 20539; Y28F)”: in the data set with CCCCC1CCCC(=O)O1, the Km was determined as 100 ± 20 µM and the kcat/Km was 270000 ± 40000 M⁻¹ s⁻¹.
As for “Dr0930 (Deinococcus radiodurans R1 = ATCC 13939 = DSM 20539; Y98F)”, in the data set with CCCCC1CCCC(=O)O1, the Km came out at 400 ± 20 µM and the kcat/Km was found to be 18000 ± 2000 M⁻¹ s⁻¹.
As for “Dr0930 (Deinococcus radiodurans R1 = ATCC 13939 = DSM 20539; Y97F)”, in the data set with CCCCC1CCCC(=O)O1, the Km was found to be 200 ± 20 µM and the kcat/Km is 1700 ± 100 M⁻¹ s⁻¹.
